Patent publication US20110014211A1 (INSTITUTE FOR ANTIBODIES, published 2011)

B1: BT-175 IgG type antibody (antibody, V domains shown)
VH: QITLKESGPTLVKPTQTLTLTCTFSGFSLRTSGVGVGWIRQPPGKAPEWLALIYWDGDKRFSPSLKSRLTINKDISKNQVVLTLTNLDPVDTGTYYCAHSFYHGSQSPGWFDPWGQGTLVTVSS
VL: QSVLTQPPSVSAAPGQKVTISCSGSSSNIGNNYVSWYQQLPGTAPKLLIYDNNKRPSGIPDRFSGSKSGTSATLGITGLQTGDEADYYCGTWDSSLSAVFGGGTKLTVLG
B2: NT-221 IgG type antibody (antibody, V domains shown)
VH: EVQLVESGPTLVKPTQTLTLTCTFSGFSLRTSGVAVGWIRQPPGKALEWLALIYWDDDKRYSPSLKSRLTITKDTSKNQVVLTMTNMDPVDTATYYCAHNTGTDLYFDWAFDYWGQGTLVTVSS
VL: QSVLTQPPSVSGAPGQRVTISCTGSSSNIGAGYDVHWYQQLPGTAPKLLIYGNSNRPSGVPDRFSGSKSGTSASLAITGLQAEDEADYYCQSYDSSLSGSVFGGGTKLTVLG
B3: NT-320 IgG type antibody (antibody, V domains shown)
VH: EVQLVESGGGVVQPGKSLRLSCAASGFTFSSYGMHWVRQAPGKGLEWVAVISYPGTNEYYTDSVKGRFTISRDNSKNTLYLQMNSLRAEDTAVYYCARGDIHSGYSFGGGDYGLDVWGQGTTVTVSS
VL: DIQMTQSPSTLSASVGDRVTITCRASQSISGWLAWYQQKPGKAPKLLMYKASSLESGVPSRFSGSGSGTEFTLTISSLQPDDFATYYCQQYNNFPWTFGQGTKVEFK
B4: BT-015 IgG type antibody (antibody, V domains shown)
VH: QVQLQQSGAEVKKPGASVKVACKASRYNFSAYYMHWVRQAPGQGPEWMGWINPHSGVTTYAQKFQGRVTMTRDTSIGTAYMELSRLRSDDTALYYCARGFGSSCSDTSCSFSGLDVWGQGTTVTVSS
VL: QSALTQPASVSGSPGQSITISCTGTSSDVGGYDYVSWYQQHPGEAPKLLIYDVTNRPSGVSSRFSGSKSGNTASLTISGLQPEDEADYYCTSYTSSVTYVFGSGTTLTVLS
B5: NT-539 IgG type antibody (antibody, V domains shown)
VH: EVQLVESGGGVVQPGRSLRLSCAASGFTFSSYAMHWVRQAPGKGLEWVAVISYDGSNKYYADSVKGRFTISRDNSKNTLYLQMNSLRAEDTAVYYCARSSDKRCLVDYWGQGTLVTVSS
VL: DIQMTQSPSAVSASLGDRVTITCRASQGINPFLAWFQQKPGKVPERLIYTASRLQSGVPSRFSGSGTGTEFNLTISSLHPEDFATYYCLQHKHYPWTFGQGTKVERK

Molecular target: Neurotoxin heavy chain (H-chain) (Clostridium botulinum, UniProt P0DPI0 449-1296)
Assay: ELISA, IgG on immobilised H-chain

Row | Binder | binding result
1 | B1 | no binding (tested: 1 µg/ml)
2 | B2 | no binding (tested: 1 µg/ml)

Molecular target: neuronal cell binding domain of the heavy chain C-terminal end (Hc, E. coli recombinant protein) (Clostridium botulinum, UniProt P0DPI0 871-1296)
Assay: immunoblotting of Hc after SDS-PAGE (denatured antigen)

Row | Binder | binding result
3 | B3 | no binding (tested: 50 µg/ml)
4 | B4 | no binding (tested: 50 µg/ml)
5 | B1 | no binding (tested: 50 µg/ml)
6 | B2 | no binding (tested: 50 µg/ml)
7 | B5 | no binding (tested: 50 µg/ml)

Molecular target: Neurotoxin light chain (L-chain) (Clostridium botulinum, UniProt P0DPI0 2-448)
Assay: ELISA, IgG on immobilised L-chain

Row | Binder | binding result
8 | B4 | no binding (tested: 1 µg/ml)
9 | B2 | no binding (tested: 1 µg/ml)
10 | B5 | no binding (tested: 10 µg/ml)
